First the molecules themselves.
B1: HDV Ribozyme (parent)
chain: GGCCGGCAUGGUCCCAGCCUCCUCGCUGGCGCCGGCUGGGCAACAUUCCGAGGGGACCGUCCCCUCGGUAAUGGCGAAUGGGACCCA

The text below walks through data of the RNAGym collection of RNA variant scans (doi:10.7554/elife.80360).

In this data set the parent is B1. In words: self-cleavage, relative activity (ratio to wild type); higher = more cleavage; co-transcriptional.
U27A G53U: the self-cleavage worked out at 0.798. The result for C44U C66U reads 0.817; that for U37G U46A, 0; that for C49A C66G, 0.96. For C13G C18A the value was 0.0831; for C32A G81U, 0.136; for C18U G54A, 0.295.

As to G11U G17A, the self-cleavage is 0.45. As to G53U G59A, the self-cleavage was 1.14.

Turning to C14A G81C, the self-cleavage is 1.22. For U12A C21G the value was 0.237; for G2C C57A, 0.086. C15U C48A: the self-cleavage worked out at 1.17. With U46C G55C, the self-cleavage was 0.554. For C48G C64A the value was 0.344; for C18G C36A, 0.095; for U37A A51C, 0.217. For C36U U47G, the self-cleavage amounted to 0.665. For U60C C66A the value was 1.14; for G5A C75A, 0.113; for U37A C75U, 0.128.

In the case of A8U G28C, the self-cleavage stood at 0.166. Turning to G50U U60C, the self-cleavage was found to be 0.938. The result for U79G C85G reads 0.575; that for U27C C33U, 0.453; that for G34A C64U, 0.133.

Take C7U G38C: the self-cleavage amounted to 0.0462. For the variant A45C G54U, the self-cleavage turned out to be 0.95. Turning to U9G C32U, the self-cleavage turned out to be 0.623. For C14U U46C, the self-cleavage was determined as 1.03.

On to G31U C85A, for which the self-cleavage was determined as 0.288. For G17U G29U the value was 0.0554; for C48U C84G, 0.712. The result for A42U U65C reads 0.657; that for G11C G73C, 0.0346; that for C3A U20A, 0.0683.

G35A G38U: the self-cleavage was 0.145. As for U72G G73C, the self-cleavage came out at 0.639.

As to C33G C75U, the self-cleavage was determined as 0.151.

Take G29U A45G: the self-cleavage was 0.0923. For C36U G82U the value was 0.234. For C36U G82A the value was 0.327; for G53C G82A, 0.383. The result for G53C G82C reads 0.0923. Consider U9G G52U, for which the self-cleavage was 1.03. For C26A C63U the value was 0.869. The result for C41A A45U reads 0.872; that for C48G A71C, 1.03; that for G5A C41A, 0.0615.

With C63U U65A, the self-cleavage was found to be 0.849. C24G A51U: the self-cleavage was 0.237. With G2A C61U, the self-cleavage was 0.149. The result for G1A C19U reads 0.101; that for G31U G53A, 0.289; that for C41U C84A, 0.78. On to U23G U27C, for which the self-cleavage is 0.511. For A8G C24A the value was 0.762; for C41A C75A, 0.208; for C24A G82C, 0.249. Regarding C13A U72C, the self-cleavage is 0.0573.

On to C26G G35U, for which the self-cleavage came out at 0.499. Regarding C15A A71C, the self-cleavage worked out at 0.35. The result for G1C A83U reads 0.252; that for U23C G34U, 0.145. The result for C33U A43C reads 0.248; that for G53C C58A, 1.06; that for C18U C63A, 0.293. The result for A45C C57U reads 0.73. U65C A77C: the self-cleavage worked out at 0.465. Consider C26G C44A, for which the self-cleavage was determined as 0.554.

Consider U37A G81U, for which the self-cleavage was determined as 0.0875. For U12G C36A the value was 0.156; for A45C U46G, 0.554; for A56U A78G, 0.684. The result for G38U U72G reads 0.145; that for U79A C84U, 0.314; that for G34U U46A, 0.0639.

Regarding U9C G52C, the self-cleavage is 1.02. With U27G G40U, the self-cleavage worked out at 0.293. With G59U A78C, the self-cleavage amounted to 0.113.

In the case of A42C U60A, the self-cleavage was determined as 0.189. As to G5C U37A, the self-cleavage was 0.104.

On to C14A C33G, for which the self-cleavage amounted to 0.213. In the case of G28C A56U, the self-cleavage was found to be 0.138. For C7A C62A the value was 0.618; for C41G A77C, 0.222.

As to C32A C57U, the self-cleavage was 0.318.

C32A C57A: the self-cleavage is 0.295. A83C: the self-cleavage is 0.458. For U23G A43C the value was 0.131.

With C3G C64U, the self-cleavage stood at 0.726. The result for C61U G68C reads 0.581; that for C58A G59C, 0.904; that for U60C C86A, 0.831. For C64U G82U the value was 0.486. Take U9G G25C: the self-cleavage is 0. For G11C C15A the value was 0.0396; for C21G C58G, 0; for A8U C44G, 0.731. As for U65G U69A, the self-cleavage stood at 1.23. For U23A G34C the value was 0.339; for C13G A71C, 0. The result for C22G G82U reads 0.0652; that for C32U A42C, 0.233; that for C48A G73U, 0.422. The result for C48G G67C reads 1. For G39U A45C, the self-cleavage turned out to be 0.196. The result for U12G A71G reads 0.594; that for G17C G31U, 0.0831; that for G11U U69G, 0.309. The result for G52U G81C reads 0.298; that for C3A A43C, 0.0504; that for C19G C33U, 0.151.

Regarding C26U A78G, the self-cleavage stood at 1.07.

For the variant U9A C14G, the self-cleavage worked out at 0.604.

Take C58G C75A: the self-cleavage came to 0.196. The result for G68U G76A reads 0.953; that for G29U G67A, 0.12.

For G28A G54U, the self-cleavage was 0.0733.

Regarding U12A G53C, the self-cleavage was determined as 0.475.

Take U12C C24G: the self-cleavage amounted to 0.119. In the case of G5U U47G, the self-cleavage was 0.222.

For A42U G52U, the self-cleavage was found to be 0.592. Take G38C G52C: the self-cleavage worked out at 0. The result for C41G A71C reads 0.0723; that for G29U C63G, 0.0386; that for C32A A45G, 0.198.

For C7G C58A, the self-cleavage turned out to be 0.506. On to G31A A51C, for which the self-cleavage came to 0.396. The result for C7A G54U reads 0.609; that for G28U G76C, 0.242. On to G28U U65C, for which the self-cleavage was 0.0707.

As for G5C C75U, the self-cleavage was 0. In the case of G54A G80C, the self-cleavage was 0.0831. Turning to C44U U60G, the self-cleavage is 0.686. For A8C U60C the value was 0.489; for C58U G74A, 0.462; for C41A C44A, 0.404. As to G25U C32U, the self-cleavage is 0.161. For G39C A77C the value was 0.0519; for U12G A77U, 0.443. Regarding C14G G59C, the self-cleavage stood at 0.969. The result for G31A C32A reads 0.0941; that for G25A G50C, 0.181; that for C21G G59A, 0.0594. For C26U G34C, the self-cleavage stood at 0.224. For C61U C62U the value was 0.644. For C19G U47C the value was 0.0852; for U27G G81C, 0.277; for U27G U47A, 0.697. For U20G G39U the value was 0.0369; for C14A A51G, 0.755; for C30A G82U, 0.166. As to U20A G67A, the self-cleavage was determined as 0.0462. The result for G28A U47G reads 0.268; that for C14U U69A, 1.02; that for A42C A71C, 0.332.

On to A45G G59U, for which the self-cleavage stood at 0.931. For G52A C75U the value was 0.147; for U23C C26U, 1.26. The result for G59C C85A reads 0.937. Take U79A A87C: the self-cleavage worked out at 0.849. For U12C G38A the value was 0.0875; for G39C U69C, 0.401.

For C24A U27G, the self-cleavage is 0.415. For C14A C32A the value was 0.148.

G17C G25C: the self-cleavage came to 0.0475.
